Target: CsrA (Pseudoalteromonas fuliginea BSW20308, UniProt A0A063KJE6 1-63)
Assay: EMSA; 1 uM CsrA; 0.1-0.5 nM RNA, 40 mM NaCl, 4 mM Tris pH 8.0, 4 mM MgCl2, 4% glycerol, 100 mg/ml BSA (so in the source), 20 mM DTT, room temperature 30 min, native PAGE
Settings: protein: recombinant; tags: C-terminal His6; chain copies: 2

B1: Pf3 sRNA (structured_RNA)
RNA: AAUAAAAAAACGGAAAUAGCUAUAAGGAAAGUAGCGCGGCACGACUACAUAGCACAAGAUUGGUGCUACUAAAGGAAAUAAUAAAAAAGAGUCAGGAAGACCGAUAAUAAUAAAAACUCAUGGAAGUUUAAUAAUAAAAACAAAAUGGAAUGCUACAAGGAACGUAAAAAUAAUAACAAUACGGACUGAUAAUAAUAAAAAUAAUAAAGACUAAAAAAAGUCGAAGGGAGA
binding result: binds
